No end group written: not given here.

This test has as its target T1, His-tagged P3028 (human, not fully specified).
T1 construct: the tag is put first after 'PGE73=His-tag-P3028'; also called PGE73; not shown: His-tag
T1 peptide: {His‑tag}-VFDEFKPLVEEPQNLIK
Briefly: chip ELISA. In general terms: ELISA stands for enzyme-linked immunosorbent assay.
As to KKLDTNFVKLSLFTER [P28R F6N], the ELISA signal turned out to be 446.

KKLDTSFVKLSLFTER [P28R F6S] registered an ELISA signal of 432.

With KKLDTRFVKLSLFTER [P28R F6R], the ELISA signal was determined as 309.

KKLDTFFVKLSLKTER [P28R F13K] displayed an ELISA signal of 220.

Consider KLLDTFFVKLSLFTER [P28R K2L], for which the ELISA signal turned out to be 343.

Consider TKLDTFFVKLSLFTER [P28R K1T], for which the ELISA signal stood at 493.

Turning to DKLDTFFVKLSLFTER [P28R K1D], the ELISA signal was 373.

Take LKLDTFFVKLSLFTER [P28R K1L]: the ELISA signal turned out to be 449.

In turn, KKLDTFWVKLSLFTER [P28R F7W] registered an ELISA signal of 380.

KKLDTFFVKLSLQTER [P28R F13Q] came in with an ELISA signal of 1140.

Molecule KKLDTFFVKLSLDTER [P28R F13D] displayed an ELISA signal of 112.

Molecule NKLDTFFVKLSLFTER [P28R K1N] gave an ELISA signal of 445.

For the molecule HKLDTFFVKLSLFTER [P28R K1H], the ELISA signal came to 428.

As for KKLDTVFVKLSLFTER [P28R F6V], the ELISA signal turned out to be 547.

In turn, VKLDTFFVKLSLFTER [P28R K1V] returned an ELISA signal of 442.

With KKLDTWFVKLSLFTER [P28R F6W], the ELISA signal came to 348.

Molecule KKLDTTFVKLSLFTER [P28R F6T] had an ELISA signal of 481.

Molecule KKLDTFFVKLSLETER [P28R F13E] yielded an ELISA signal of 98.

Regarding KFLDTFFVKLSLFTER [P28R K2F], the ELISA signal is 390.

KKLDTFFVKLSLVTER [P28R F13V] came in with an ELISA signal of 446.

In turn, KKLDTYFVKLSLFTER [P28R F6Y] displayed an ELISA signal of 364.

As to KKLDTFQVKLSLFTER [P28R F7Q], the ELISA signal is 511.

Take KKLDTFNVKLSLFTER [P28R F7N]: the ELISA signal stood at 348.

On to KKLDTFFVKLSLSTER [P28R F13S], for which the ELISA signal amounted to 635.

The molecule KKLDTFFVKLSLYTER [P28R F13Y] had an ELISA signal of 291.

For YKLDTFFVKLSLFTER [P28R K1Y], the ELISA signal is 315.

As to AKLDTFFVKLSLFTER [P28R K1A], the ELISA signal was determined as 466.

The molecule KKLDTFAVKLSLFTER [P28R F7A] displayed an ELISA signal of 426.

As to IKLDTFFVKLSLFTER [P28R K1I], the ELISA signal is 483.

In turn, KELDTFFVKLSLFTER [P28R K2E] showed an ELISA signal of 349.

For KKLDTFFVKLSLATER [P28R F13A], the ELISA signal worked out at 525.

KKLDTFSVKLSLFTER [P28R F7S] came in with an ELISA signal of 700.

In the case of KKLDTFFVKLSLTTER [P28R F13T], the ELISA signal came to 494.

Molecule EKLDTFFVKLSLFTER [P28R K1E] had an ELISA signal of 396.

Take KKLDTFEVKLSLFTER [P28R F7E]: the ELISA signal worked out at 381.

Turning to WKLDTFFVKLSLFTER [P28R K1W], the ELISA signal was found to be 284.

Regarding KKLDTFIVKLSLFTER [P28R F7I], the ELISA signal is 446.

KKLDTFVVKLSLFTER [P28R F7V] showed an ELISA signal of 527.

As to MKLDTFFVKLSLFTER [P28R K1M], the ELISA signal stood at 457.

QKLDTFFVKLSLFTER [P28R K1Q] displayed an ELISA signal of 455.

For KALDTFFVKLSLFTER [P28R K2A], the ELISA signal was 309.

As to KKLDTFRVKLSLFTER [P28R F7R], the ELISA signal came out at 369.

KKLDTFKVKLSLFTER [P28R F7K] showed an ELISA signal of 232.

SKLDTFFVKLSLFTER [P28R K1S] came in with an ELISA signal of 344.

For the molecule KKLDTFMVKLSLFTER [P28R F7M], the ELISA signal is 712.

For the molecule KMLDTFFVKLSLFTER [P28R K2M], the ELISA signal was 400.

KKLDTFFVKLSLMTER [P28R F13M] gave an ELISA signal of 1190.

Molecule KKLDTFFVKLSLHTER [P28R F13H] displayed an ELISA signal of 1050.

Regarding KKLDTFFVKLSLRTER [P28R F13R], the ELISA signal was found to be 502.

In turn, KHLDTFFVKLSLFTER [P28R K2H] registered an ELISA signal of 394.

In the case of KKLDTFFVKLSLLTER [P28R F13L], the ELISA signal came out at 448.

As to KKLDTFFVKLSLWTER [P28R F13W], the ELISA signal came to 430.

The molecule KKLDTFLVKLSLFTER [P28R F7L] registered an ELISA signal of 517.

KNLDTFFVKLSLFTER [P28R K2N] came in with an ELISA signal of 432.

FKLDTFFVKLSLFTER [P28R K1F] came in with an ELISA signal of 332.

As to KKLDTFDVKLSLFTER [P28R F7D], the ELISA signal was 301.

KDLDTFFVKLSLFTER [P28R K2D] had an ELISA signal of 335.

For the molecule KKLDTFYVKLSLFTER [P28R F7Y], the ELISA signal was found to be 334.

In turn, KKLDTFFVKLSLNTER [P28R F13N] came in with an ELISA signal of 862.

Consider KILDTFFVKLSLFTER [P28R K2I], for which the ELISA signal worked out at 331.

In turn, RKLDTFFVKLSLFTER [P28R K1R] displayed an ELISA signal of 523.

Take KKLDTFTVKLSLFTER [P28R F7T]: the ELISA signal came out at 517.

In the case of KKLDTFHVKLSLFTER [P28R F7H], the ELISA signal was 364.

Take KKLDTFFVKLSLITER [P28R F13I]: the ELISA signal was determined as 468.

For KKLDTQFVKLSLFTER [P28R F6Q], the ELISA signal came out at 410.

Source of the values: US20170298096A1 (CANIMGUIDE THERAPEUTICS, published 2017).
